Laboratory results as given in PMC5821850, “Basal condensation of Numb and Pon complex via phase transition during Drosophila neuroblast asymmetric division” (Nature Communications, 2018).
Values belong to the molecule of their own block, whether it stands above or below them. Square brackets hold non-standard residues; d marks the D form. Ends that are not written are not given here. pT = C[C@@H](OP(=O)(O)O)[C@H](N)C(=O)O

Experiments:
[1] = molecular target: Drosophila Numb PTB domain (aa 65-203) (Drosophila) (UniProt P16554); assay: ITC; Pon fragments (~0.5 mM) injected into PTB proteins (~0.05 mM); 20 °C; 50 mM Tris pH 8.0, 100 mM NaCl, 1 mM EDTA, 1 mM β-ME; one-site binding model
Numb PTB R171A [2] = molecular target: T1, Numb PTB R171A (Drosophila, UniProt P16554-1 65-203, R171A); assay: as above
T1 sequence: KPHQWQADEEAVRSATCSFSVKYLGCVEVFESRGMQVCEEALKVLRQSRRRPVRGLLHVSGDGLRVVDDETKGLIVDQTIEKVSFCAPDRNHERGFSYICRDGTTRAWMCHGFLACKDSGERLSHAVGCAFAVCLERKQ

[3] = molecular target: Drosophila Numb PTB domain (aa 65–203), P16554-1; assay: ITC; conditions: parent: 1.80 ± 0.17
[4] = molecular target: Drosophila Numb PTB domain (aa 65-203) (Drosophila) (UniProt P16554)
[5] = molecular target: Drosophila Numb PTB domain (aa 65-203) (Drosophila) (UniProt P16554); remark: listed apart in the source
[6] = molecular target: T2, Drosophila Numb PTB domain (aa 65–203) (Drosophila, UniProt P16554-1 65-203); assay: ITC
T2 chain: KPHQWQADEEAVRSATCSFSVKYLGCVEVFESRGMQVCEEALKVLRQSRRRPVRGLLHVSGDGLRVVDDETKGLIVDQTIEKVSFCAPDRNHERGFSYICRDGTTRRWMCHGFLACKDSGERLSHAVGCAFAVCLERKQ

Numb PTB R171A [7] = molecular target: T1, Numb PTB R171A; assay: ITC
[8] = molecular target: T2, Drosophila Numb PTB domain (aa 65–203); assay: ITC
[9] = molecular target: T3, Drosophila Numb PTB domain (aa 65–203) (Drosophila, UniProt P16554-1 65-203); assay: ITC; ITC200, 20 °C, buffer A (50 mM Tris pH 8.0, 1 mM EDTA, 1 mM β-ME, 100 mM NaCl); Pon fragments (~0.5 mM) injected into PTB proteins (~0.05 mM); one-site binding model; conditions: both partners purified
T3 construct: Numb PTB domain, Drosophila, Uniprot P16554-1, aa 65-203; source: E. coli BL21 (DE3), purified (Ni2+-NTA, SEC); not shown: His tag, N-terminal, cleaved
T3 sequence (looked up): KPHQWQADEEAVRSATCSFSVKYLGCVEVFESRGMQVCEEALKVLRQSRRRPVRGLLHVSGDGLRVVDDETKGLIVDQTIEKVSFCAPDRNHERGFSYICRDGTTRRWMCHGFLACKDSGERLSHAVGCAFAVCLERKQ

[10] = molecular target: T4, Drosophila Numb PTB domain (aa 65-203) (Drosophila, UniProt P16554-1 65-203); assay: ITC; Pon fragments (~0.5 mM) injected into PTB proteins (~0.05 mM); 20 °C; 50 mM Tris pH 8.0, 100 mM NaCl, 1 mM EDTA, 1 mM β-ME; one-site binding model; conditions: both partners purified
T4 construct: Numb, Drosophila, PTB domain, residues 65-203; theoretical mass 15.7 kDa in the ultracentrifugation; also called dNumb PTB; Numb 65-203; source: E. coli BL21 (DE3), purified (Ni2+-NTA, SEC); not shown: His tag, N-terminal, cleaved
T4 sequence (looked up): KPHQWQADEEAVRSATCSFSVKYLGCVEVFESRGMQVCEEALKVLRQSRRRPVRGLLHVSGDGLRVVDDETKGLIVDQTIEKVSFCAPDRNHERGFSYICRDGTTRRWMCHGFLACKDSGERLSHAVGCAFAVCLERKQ

[11] = molecular target: T3, Drosophila Numb PTB domain (aa 65–203); assay: AUC; sedimentation velocity, 42,000 rpm, 4 °C, interference detection, SEDFIT; Numb PTB with three molar ratios of Nak AB, or with Pon A2B2; conditions: both partners purified

Molecule: Pon 130-162 (A2B2) (domain or fragment)
Kd [1]: 1 µM
Kd (Numb PTB R171A [2]): > 100 µM

Molecule: Pon 157-200 (A3B3) (domain or fragment)
Kd [1]: 12.2 µM

Molecule: Pon A2B2 N152P153A (domain or fragment)
Kd [1]: 48.3 µM

Molecule: Pon 110-148 (B1A2) (domain or fragment)
Kd [1]: 8.77 µM
Kd (Numb PTB R171A [2]): > 100 µM

Molecule: Pon A2B2 fragment N152A; P153A
Kd [3]: 49.3 µM

B4: Pon 1-130/41-130 (A1B1) (domain or fragment)
chain: MLETKSIAALAFTETPRKRKRETLYKNAAPPPNPQQQPPEKDAQDAAVASTESCFTNAAFSSTPKKLMVARRRLAKENSQPNPFPGLEVKSIADLAQKQQHQQHHQQQQQQQQKLPTNPFEVLRQPPKKK
Kd [10]: 18.1 ± 2.2 µM

B6: Nak AB fragment (Numb-associated kinase, C-terminal A and B motifs) (peptide)
chain: QNSAKTGFSNMSFEDFPSDQEMDRLSRTIPFEVVRNEKML
stoichiometry N [11]: 1

B9: Pon 124-148/130-148 (A2) (domain or fragment)
chain: KKREHACFENPGLNLELPE
Kd [10]: > 100 µM

B10: Pon A1 (peptide)
chain: AAVASTESCFTNAAFSST
Kd [8]: > 70 µM

B12: Pon A2B2 K149A (peptide)
chain: KKKKREHACFENPGLNLELPEAQFNPYEVVRSA
Kd [6]: 5.46 µM

B15: Pon A2B2 fragment (peptide)
chain: KKKKREHACFENPGLNLELPEKQFNPYEVVRSA
Kd (Numb PTB R171A [7]): > 100 µM
Kd [8]: 1.8 µM

B16: Pon 1-116 (A1) (domain or fragment)
chain: MLETKSIAALAFTETPRKRKRETLYKNAAPPPNPQQQPPEKDAQDAAVASTESCFTNAAFSSTPKKLMVARRRLAKENSQPNPFPGLEVKSIADLAQKQQHQQHHQQQQQQQQKLP
Kd [10]: ~70 µM

B17: Pon A2B2 K148A (domain or fragment)
chain: KKREHACFENPGLNLELPEAQFNPYEVVRSATT
Kd [10]: 0.48 ± 0.02 µM

B18: Pon A2B2 R158A (domain or fragment)
chain: KKREHACFENPGLNLELPEKQFNPYEVVASATT
Kd [10]: > 100 µM

B19: Pon A2B2 Y154E (domain or fragment)
chain: KKREHACFENPGLNLELPEKQFNPEEVVRSATT
Kd [10]: > 100 µM

Further lines, results first:

in vitro phase transition, sedimentation assay: share of Numb PTB and Pon A1B3 recovered from the condensed liquid phase, 1:1 mixture, 25 to 100 μM [4]: 80%
in vitro phase transition, sedimentation assay: share of the proteins in the condensed liquid phase against the molar ratio, highest at 1:3 Pon A1B3 to Numb PTB [5]: > 90%
Molecule: Pon N-terminal fragment (aa 1–228), A1B1A2B2A3B3 (domain or fragment)

Kd [6]: > 100 µM
B1: Pon single-AB fragment with E121A in the B1 motif (peptide)
chain: QQKLPTNPFAVLRQPPKKKKREHACFENPGLNLE

Kd (Numb PTB R171A [7]): > 100 µM
Kd [8]: 8.77 µM
B2: Pon B1A2 fragment (peptide)
chain: QQKLPTNPFEVLRQPPKKKKREHACFENPGLNLE

Kd [9]: ~11 µM
B3: pPon peptide (peptide)
peptide: ESCFTNAAFSS[pT]PKK
notes: Pon, Drosophila; stretch with the A1 motif FTNAAF (N57) followed by the phosphorylated threonine; limits worked out by setting the Asn of FTNAAF to N57 of the A1 motif; source: synthetic peptide (commercially synthesized)

Kd [10]: 11.3 ± 0.37 µM
B5: pPon peptide (peptide)
peptide: ESCFTNAAFSS[pT]PKK
notes: Pon, Drosophila; the peptide holds the A1 motif FTNAAF; the range is counted from N57 of the A1 motif; source: synthetic peptide

Kd [8]: 12.2 µM
B7: Pon A3B3 fragment (peptide)
chain: VRSATTPAKGFVNPALNLRGSDAPASLNPFEIHRPSEASEAACN

Kd [10]: > 100 µM
B8: Pon B1A2 E121A (domain or fragment)
chain: QQQQKLPTNPFAVLRQPPKKKKREHACFENPGLNLELPE

Kd [6]: 49.3 µM
B11: Pon single-AB fragment with N152,P153A in the B2 motif (peptide)
chain: KKKKREHACFENPGLNLELPEKQFAAYEVVRSA

Kd [6]: > 100 µM
B13: Pon single-AB fragment with Y154E in the B2 motif (peptide)
chain: KKKKREHACFENPGLNLELPEKQFNPEEVVRSA

Kd [6]: > 100 µM
B14: Pon single-AB fragment with R158A in the B2 motif (peptide)
chain: KKKKREHACFENPGLNLELPEKQFNPYEVVASA
